From patent CN113563475A (INST MICROBIOLOGY CAS, dated 2021)

B1: 双特异性抗体BS-mAb-1 (bispecific antibody)
heavy: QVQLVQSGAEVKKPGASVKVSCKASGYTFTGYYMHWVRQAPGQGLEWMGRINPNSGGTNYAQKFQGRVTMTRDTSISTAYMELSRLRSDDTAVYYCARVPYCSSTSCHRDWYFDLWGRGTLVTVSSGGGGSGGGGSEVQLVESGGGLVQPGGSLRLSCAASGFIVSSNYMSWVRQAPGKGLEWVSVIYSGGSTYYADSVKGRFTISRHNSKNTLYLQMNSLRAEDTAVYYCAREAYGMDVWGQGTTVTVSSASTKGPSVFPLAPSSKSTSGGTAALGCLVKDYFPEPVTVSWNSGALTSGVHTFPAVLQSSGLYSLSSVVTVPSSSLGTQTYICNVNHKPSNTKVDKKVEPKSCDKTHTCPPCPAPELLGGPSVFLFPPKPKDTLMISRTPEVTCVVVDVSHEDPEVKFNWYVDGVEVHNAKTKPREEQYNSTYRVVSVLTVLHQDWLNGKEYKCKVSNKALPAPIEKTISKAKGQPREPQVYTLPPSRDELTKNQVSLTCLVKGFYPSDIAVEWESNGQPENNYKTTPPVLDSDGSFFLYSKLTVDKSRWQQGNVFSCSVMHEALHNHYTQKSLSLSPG
light: DIQMTQSPLSLPVTPGEPASISCRSSQSLLDSDDGNTYLDWYLQKPGQSPQLLIYTLSYRASGVPDRFSGSGSGTDFTLKISRVEAEDVGVYYCMQRIEFPLTFGGGTKVEIKGGGGSGGGGSDIVMTQSPSFLSASVGDRVTITCRASQGISSYLAWYQQKPGKAPKLLIYAASTLQSGVPSRFSGSGSGTEFTLTISSLQPEDFATYYCQQLNSYPPYTFGQGTKLEIKRTVAAPSVFIFPPSDEQLKSGTASVVCLLNNFYPREAKVQWKVDNALQSGNSQESVTEQDSKDSTYSLSSTLTLSKADYEKHKVYACEVTHQGLSSPVTKSFNRGEC
B2: 双特异性抗体BS-mAb-2 (bispecific antibody)
heavy: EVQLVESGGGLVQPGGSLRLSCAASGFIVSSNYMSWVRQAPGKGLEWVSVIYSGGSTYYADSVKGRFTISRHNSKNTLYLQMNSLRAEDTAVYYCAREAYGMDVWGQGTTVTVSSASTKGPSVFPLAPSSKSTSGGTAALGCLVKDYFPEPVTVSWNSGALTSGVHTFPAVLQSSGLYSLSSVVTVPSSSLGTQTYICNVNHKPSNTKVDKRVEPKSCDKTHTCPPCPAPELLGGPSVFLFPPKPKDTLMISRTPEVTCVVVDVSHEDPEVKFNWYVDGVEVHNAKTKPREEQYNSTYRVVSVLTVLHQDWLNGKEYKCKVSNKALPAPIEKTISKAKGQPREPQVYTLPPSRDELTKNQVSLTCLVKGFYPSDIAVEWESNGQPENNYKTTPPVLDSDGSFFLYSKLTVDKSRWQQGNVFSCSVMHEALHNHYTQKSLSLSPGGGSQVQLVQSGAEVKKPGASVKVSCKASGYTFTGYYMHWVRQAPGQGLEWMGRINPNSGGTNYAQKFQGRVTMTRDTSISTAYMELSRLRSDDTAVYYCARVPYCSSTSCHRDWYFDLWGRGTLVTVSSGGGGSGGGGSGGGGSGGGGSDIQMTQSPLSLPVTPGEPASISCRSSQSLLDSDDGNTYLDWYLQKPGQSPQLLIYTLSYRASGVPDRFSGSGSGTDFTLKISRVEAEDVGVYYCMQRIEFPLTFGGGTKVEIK
light: DIVMTQSPSFLSASVGDRVTITCRASQGISSYLAWYQQKPGKAPKLLIYAASTLQSGVPSRFSGSGSGTEFTLTISSLQPEDFATYYCQQLNSYPPYTFGQGTKLEIKRTVAAPSVFIFPPSDEQLKSGTASVVCLLNNFYPREAKVQWKVDNALQSGNSQESVTEQDSKDSTYSLSSTLTLSKADYEKHKVYACEVTHQGLSSPVTKSFNRGECS
B3: 单抗B38 (antibody, V domains shown)
VH: EVQLVESGGGLVQPGGSLRLSCAASGFIVSSNYMSWVRQAPGKGLEWVSVIYSGGSTYYADSVKGRFTISRHNSKNTLYLQMNSLRAEDTAVYYCAREAYGMDVWGQGTTVTVSS
VL: DIVMTQSPSFLSASVGDRVTITCRASQGISSYLAWYQQKPGKAPKLLIYAASTLQSGVPSRFSGSGSGTEFTLTISSLQPEDFATYYCQQLNSYPPYTFGQGTKLEIK

What was measured:
[1] = target: 新冠病毒S抗原 (on VSV-SARS-CoV-2 pseudovirus, wild type) (新型冠状病毒 (2019-nCoV / SARS-CoV-2), UniProt P0DTC2 14-1273); assay: cell-based or functional assay
带有组氨酸标签的S蛋白RBD = 带有组氨酸标签的S蛋白RBD (新型冠状病毒 (2019-nCoV / SARS-CoV-2), UniProt P0DTC2 319-541)

Binder	中和滴度(半数中和浓度，NC50), 2019-nCoV假病毒, Hela-hACE2, luciferase [1] [µg/mL]	Kd (带有组氨酸标签的S蛋白RBD) [nM]
B1	0.119	–
B2	0.048	–
B3	0.681	22.5
